The text below walks through data of PMC9456337.

The target of experiment [1] is recombinant cytochrome c552 (CytC552) from Thioalkalivibrio paradoxus (Thioalkalivibrio paradoxus ARh 1). Kind of experiment: NMR titration; oxidized 13C/15N-labelled CytC552 titrated with TcDH; intensity of the 1H signal of the heme HAB atom fitted with the Morrison equation; 1H/15N-HSQC chemical shift perturbation at saturating TcDH; slow exchange; 50 mM sodium phosphate, pH 7.0, 303 K.

Experiment [2] addresses thiocyanate dehydrogenase (TcDH) from Thioalkalivibrio paradoxus ARh 1 (Thioalkalivibrio paradoxus ARh 1).
Experiment [3] shares this target. Put plainly: ITC; aliquots (2.6 µL) of CytC552 injected into a 0.2-mL cell with 9.3 µM TcDH; 25 °C; 25 mM borate buffer, pH 9.5; fitted assuming either one or two binding sites of CytC552 in the TcDH dimer. A general note: In ITC the heat of successive injections is recorded.

As for “thiocyanate dehydrogenase (TcDH) from Thioalkalivibrio paradoxus ARh 1 (enzyme)”, in experiment [1], the dissociation constant (Kd) (usually the equilibrium constant for the complex coming apart) is 2000 nM and the stoichiometry N (usually the number of molecules, sites or subunits per partner or assembly) was determined as 1.

Substance “recombinant cytochrome c552 (CytC552) from Thioalkalivibrio paradoxus (natural protein)” came in with a specific activity of TcDH in thiocyanate oxidation with CytC552 as electron acceptor, pH optimum 9.5 in experiment [2] of 7.3 µmol/min/mg. The same substance gave a Kd in experiment [3] of 1800 nM.
